Measured values from paper PMC3395618.

Molecular target: HLA-Cw*0102 (human (endogenous in T2))

Molecule | HLA-Cw*0102 expression on peptide-pulsed T2 cells (antibody DT9, flow cytometry) as compared to non-peptide pulsed T2 cells
p24 Gag177-186 (from UniProt P04591 177-186) (peptide) | > 5 fold
p24 Gag164-173 (from UniProt P04591 164-173) (peptide) | > 5 fold
p24 Gag176-185 (from UniProt P04591 176-185) (peptide) | > 5 fold
p24 Gag162-171 (from UniProt P04591 162-171) (peptide) | > 5 fold
p24 Gag146-155 (from UniProt P04591 146-155) (peptide) | > 5 fold
LKALGPAATL [p24 Gag334-343 (…)] | > 5 fold
AAEWDRLHPV [p24 Gag209-218 (…)] | > 5 fold
SDIAGTTSTL [p24 Gag234-243 (…)] | > 5 fold
VIPMFSALSE [p24 Gag168-177 (…)] | > 5 fold
